The source of these data is paper PMC12990809.

Assay in all cases: pulldown
In one series the target is T1, tardbpl (Danio rerio) (UniProt A0A8M1PDP8).
T1 sequence: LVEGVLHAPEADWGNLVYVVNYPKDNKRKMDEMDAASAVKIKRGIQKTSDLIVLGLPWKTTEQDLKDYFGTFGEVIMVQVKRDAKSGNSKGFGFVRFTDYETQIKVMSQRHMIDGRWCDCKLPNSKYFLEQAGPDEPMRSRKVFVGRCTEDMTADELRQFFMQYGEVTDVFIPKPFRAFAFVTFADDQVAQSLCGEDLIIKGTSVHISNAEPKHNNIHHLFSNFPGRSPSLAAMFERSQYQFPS
The conditions noted are these: 20 nM protein, 1.5 uM RNA pool; 20 mM HEPES pH 7.8, 70 mM KCl, 10 mM NaCl, 10% glycerol, 2 mM DTT, 0.1 ug/uL BSA; 30 min, 4 C.

Series [1] concerns the target T2, SCHCODRAFT_80278 (Schizophyllum commune) (UniProt A0ACF2ERL4).
T2 sequence: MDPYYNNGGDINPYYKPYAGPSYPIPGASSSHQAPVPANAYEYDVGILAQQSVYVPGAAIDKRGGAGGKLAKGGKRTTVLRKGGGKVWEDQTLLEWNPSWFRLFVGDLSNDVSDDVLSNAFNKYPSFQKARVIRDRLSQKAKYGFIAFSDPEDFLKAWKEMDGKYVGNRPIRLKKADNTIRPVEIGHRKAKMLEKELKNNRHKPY
Conditions: 20 nM protein, 1.5 uM RNA pool; 20 mM HEPES pH 7.8, 70 mM KCl, 10 mM NaCl, 10% glycerol, 2 mM DTT, 0.1 ug/uL BSA; 30 min, 4 C.

A further series deals with T3, PRR3 (Homo sapiens) (UniProt P79522).
T3 sequence: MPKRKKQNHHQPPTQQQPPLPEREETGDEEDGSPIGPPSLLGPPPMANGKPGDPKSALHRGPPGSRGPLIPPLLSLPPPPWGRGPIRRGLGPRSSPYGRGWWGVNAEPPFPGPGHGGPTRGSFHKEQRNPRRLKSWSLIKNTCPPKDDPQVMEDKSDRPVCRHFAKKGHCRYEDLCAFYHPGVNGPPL
Conditions: 20 nM protein, 1.5 uM RNA pool; 20 mM HEPES pH 7.8, 70 mM KCl, 10 mM NaCl, 10% glycerol, 2 mM DTT, 0.1 ug/uL BSA; 30 min, 4 C.

The target of a further series is hnrnpa0a (Danio rerio) (UniProt Q6NYB0). Conditions: 20 nM protein, 1.5 uM RNA pool; 20 mM HEPES pH 7.8, 70 mM KCl, 10 mM NaCl, 10% glycerol, 2 mM DTT, 0.1 ug/uL BSA; 30 min, 4 C.
Chain of hnrnpa0a (Danio rerio) (Q6NYB0 entry or part of it): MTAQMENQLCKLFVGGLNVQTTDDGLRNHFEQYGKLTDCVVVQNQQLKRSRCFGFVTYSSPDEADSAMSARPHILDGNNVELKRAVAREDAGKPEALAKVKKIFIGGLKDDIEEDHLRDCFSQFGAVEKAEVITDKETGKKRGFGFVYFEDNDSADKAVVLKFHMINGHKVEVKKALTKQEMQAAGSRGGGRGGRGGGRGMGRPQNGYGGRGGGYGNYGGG
Series [2] deals with T4, Hrb87F (Drosophila melanogaster) (UniProt P48810).
T4 sequence: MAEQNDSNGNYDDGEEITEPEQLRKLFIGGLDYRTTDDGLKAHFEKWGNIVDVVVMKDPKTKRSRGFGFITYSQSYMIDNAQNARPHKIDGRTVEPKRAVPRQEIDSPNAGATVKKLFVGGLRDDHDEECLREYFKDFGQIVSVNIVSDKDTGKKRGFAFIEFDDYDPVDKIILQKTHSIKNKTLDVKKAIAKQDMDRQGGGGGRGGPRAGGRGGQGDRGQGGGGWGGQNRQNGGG
Conditions: 20 nM protein, 1.5 uM RNA pool; 20 mM HEPES pH 7.8, 70 mM KCl, 10 mM NaCl, 10% glycerol, 2 mM DTT, 0.1 ug/uL BSA; 30 min, 4 C (protocol of this paper; not …); cited from earlier work.

In series [3] the target is T5, RNPC3 ins163_E (Gallus gallus) (UniProt A0A8V0ZU58).
T5 sequence: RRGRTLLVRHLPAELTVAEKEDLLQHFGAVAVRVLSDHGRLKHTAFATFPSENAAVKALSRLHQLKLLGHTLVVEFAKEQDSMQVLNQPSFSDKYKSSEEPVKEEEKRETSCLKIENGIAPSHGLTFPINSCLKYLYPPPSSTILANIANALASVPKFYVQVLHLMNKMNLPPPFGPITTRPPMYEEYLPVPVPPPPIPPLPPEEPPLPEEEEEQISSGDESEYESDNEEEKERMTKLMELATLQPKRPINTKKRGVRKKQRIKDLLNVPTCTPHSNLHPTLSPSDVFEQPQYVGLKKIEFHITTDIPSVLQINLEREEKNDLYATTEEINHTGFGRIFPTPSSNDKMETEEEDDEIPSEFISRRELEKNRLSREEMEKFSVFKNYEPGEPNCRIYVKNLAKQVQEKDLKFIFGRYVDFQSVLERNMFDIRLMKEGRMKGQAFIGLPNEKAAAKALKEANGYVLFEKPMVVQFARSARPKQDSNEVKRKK
Conditions: 20 nM protein, 1.5 uM RNA pool; 20 mM HEPES pH 7.8, 70 mM KCl, 10 mM NaCl, 10% glycerol, 2 mM DTT, 0.1 ug/uL BSA; 30 min, 4 C.

Series [4] concerns the target T6, LmjF.25.0080 (Leishmania major) (UniProt Q4QA88).
T6 sequence: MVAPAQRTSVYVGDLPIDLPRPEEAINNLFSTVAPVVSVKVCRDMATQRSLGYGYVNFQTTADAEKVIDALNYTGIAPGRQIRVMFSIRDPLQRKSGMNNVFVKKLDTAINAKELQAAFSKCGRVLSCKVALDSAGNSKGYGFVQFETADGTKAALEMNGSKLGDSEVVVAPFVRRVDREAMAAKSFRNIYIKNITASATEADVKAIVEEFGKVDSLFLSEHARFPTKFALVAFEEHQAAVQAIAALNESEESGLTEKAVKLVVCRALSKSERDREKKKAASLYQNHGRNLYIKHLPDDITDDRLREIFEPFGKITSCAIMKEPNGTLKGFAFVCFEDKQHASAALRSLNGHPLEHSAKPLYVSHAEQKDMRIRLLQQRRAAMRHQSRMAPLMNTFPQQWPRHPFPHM
The conditions noted are these: 20 nM protein, 1.5 uM RNA pool; 20 mM HEPES pH 7.8, 70 mM KCl, 10 mM NaCl, 10% glycerol, 2 mM DTT, 0.1 ug/uL BSA; 30 min, 4 C.

The target of series [5] is T7, PK27183.1 (Cannabis sativa) (UniProt A0A7J6I1V8).
T7 sequence: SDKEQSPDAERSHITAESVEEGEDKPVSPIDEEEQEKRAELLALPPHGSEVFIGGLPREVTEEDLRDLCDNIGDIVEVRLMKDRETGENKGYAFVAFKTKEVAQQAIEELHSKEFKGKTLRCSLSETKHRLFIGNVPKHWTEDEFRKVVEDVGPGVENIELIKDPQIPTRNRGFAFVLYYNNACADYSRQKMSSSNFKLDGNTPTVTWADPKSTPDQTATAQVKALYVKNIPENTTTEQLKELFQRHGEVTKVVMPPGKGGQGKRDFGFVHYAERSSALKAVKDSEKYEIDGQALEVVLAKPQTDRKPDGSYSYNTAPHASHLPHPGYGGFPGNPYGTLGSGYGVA
Conditions: 20 nM protein, 1.5 uM RNA pool; 20 mM HEPES pH 7.8, 70 mM KCl, 10 mM NaCl, 10% glycerol, 2 mM DTT, 0.1 ug/uL BSA; 30 min, 4 C.

In series [6] the target is e_gw1.13.00.297.1 (Ostreococcus tauri) (UniProt A0A096P8F1). Conditions: 20 nM protein, 1.5 uM RNA pool; 20 mM HEPES pH 7.8, 70 mM KCl, 10 mM NaCl, 10% glycerol, 2 mM DTT, 0.1 ug/uL BSA; 30 min, 4 C.
Chain of e_gw1.13.00.297.1 (Ostreococcus tauri) (A0A096P8F1 entry or part of it): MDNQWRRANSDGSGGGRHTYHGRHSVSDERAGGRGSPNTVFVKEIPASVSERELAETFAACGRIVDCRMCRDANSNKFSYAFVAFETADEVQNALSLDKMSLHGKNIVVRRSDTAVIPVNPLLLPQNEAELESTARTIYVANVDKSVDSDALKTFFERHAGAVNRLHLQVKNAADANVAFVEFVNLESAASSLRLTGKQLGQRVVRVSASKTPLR

In the series with tardbpl (Danio rerio), UGAAUG [RNAcompete motif RNCMPT00683] came in with a binding signal (z-score (mean of top ten 7-mers)) of 11.3.

AACUAC [RNAcompete motif RNCMPT00678]: the binding signal (z-score (mean of top ten 7-mers)) in series [1] is 13.6.

Regarding AUAAGC [RNAcompete motif RNCMPT00628], in the series with PRR3 (Homo sapiens), the binding signal (z-score (mean of top ten 7-mers)) came out at 15.2.

UAGGA [RNAcompete motif RNCMPT00677] registered a binding signal (z-score (mean of top ten 7-mers)) in the series with hnrnpa0a (Danio rerio) of 9.94.

For GGUAGGG [RNAcompete motif RNCMPT00029], the binding signal (z-score (mean of top ten 7-mers)) in series [2] was 13.4.

With UUACGUA [RNAcompete motif RNCMPT00630], the binding signal (z-score (mean of top ten 7-mers)) in [3] stood at 6.68.

As to AGAAAA [RNAcompete motif RNCMPT00688], the binding signal (z-score (mean of top ten 7-mers)) in series [4] came out at 9.16.

As to AGACACA [RNAcompete motif RNCMPT00685], the binding signal (z-score (mean of top ten 7-mers)) in [5] amounted to 13.3.

In series [6], AAUAAG [RNAcompete motif RNCMPT00681] registered a binding signal (z-score (mean of top ten 7-mers)) of 20.7.
